Key:
[1] = biological target: T1, Anti-Glut4 VHH (alpaca); assay: ITC; 10 uM VHH in the cell; 100 uM fusion protein (or scaffold protein Adhiron-WT) titrated, 20 injections of 2 ul at intervals of 120 s; PBS pH 7.4, 25 °C; n = 3, mean ± s.e.m.; conditions: both partners purified
T1 construct: alpaca VHH; selected by phage display from an alpaca immunized with Adhiron-Glut4; also called the VHH; anti-Glut4 VHH antibody; source: E. coli BL21(DE3), purified (Ni-NTA, SEC)

[2] = biological target: T2, full-length Glut1 as a recombinant protein (Homo sapiens, UniProt P11166); assay: SPR; Biacore 8K; His-tagged Glut1 captured by anti-His antibodies on a CM5 chip; VHH injected at 123 nM-10 μM, single-cycle kinetics; 25 mM Mes-NaOH pH 6.0, 150 mM NaCl, 5% glycerol, 0.05% n-dodecyl-β-D-maltoside, 25 °C; conditions: both partners purified
T2 construct: glucose transporter 1 (Glut1), human, full length; also called glucose transporter 1; full-length Glut1 in micelles; source: High Five insect cells (baculovirus), purified (solubilised with n-dodecyl-β-D-maltopyranoside, Ni-NTA, SEC); not shown: His10, C-terminal, kept

[3] = biological target: T3, Fc-VHH antibody of VHH5 (alpaca); assay: flow cytometry on cells; Expi293 cells transfected with Glut1 against empty vector; 1 μM Fc-VHH with Alexa Fluor 488 anti-human IgG, on ice 60 min; conditions: one partner purified
T3 construct: as the VHH of m7; form used for flow cytometry; source: ExpiCHO, transfected, purified from the supernatant (rProtein A Sepharose, SEC); not shown: Fc (Fc region of trastuzumab), C-terminal, kept

[4] = biological target: T4, Fc-VHH antibody of VHH4 (alpaca); assay: as above; conditions: one partner purified
T4 construct: as the VHH of m6; form used for flow cytometry; source: ExpiCHO, transfected, purified from the supernatant (rProtein A Sepharose, SEC); not shown: Fc (Fc region of trastuzumab), C-terminal, kept

[5] = biological target: T3, Fc-VHH antibody of VHH5; assay: flow cytometry on cells; HCT116 cells with endogenous Glut1; 1 μM Fc-VHH with Alexa Fluor 488 anti-human IgG, on ice 60 min; conditions: one partner purified
[6] = biological target: T4, Fc-VHH antibody of VHH4; assay: as above; conditions: one partner purified

T1 sequence (VHH, as listed by the source): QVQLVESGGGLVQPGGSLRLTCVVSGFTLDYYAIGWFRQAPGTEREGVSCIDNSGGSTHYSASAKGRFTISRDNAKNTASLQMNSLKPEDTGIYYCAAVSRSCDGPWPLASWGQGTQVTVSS

B1: Adhiron-Glut4 (other)
chain: ENSLEIEELARFAVDEHNKKENALLEFVRVVKAKEQGGGGSAPQKVIEQSYNETWLGRQGPEGPSSIPPGTLTTLWALSVGGGGSTMYYLTLEAKDGGKKKLYEAKVWVKPWENFKELQEFKPV
modifications: Limits of the Glut4 graft are not printed: 47-85 is the homologue of Glut1 35-69 (two extracellular helices). Graft site is assumed to be as in Adhiron-Glut1: loop 47VVAG50 (entity 37-40, offset 10) …
Kd [1]: 3.67 nM
stoichiometry N [1]: 1.02

B2: VHH4 with a FLAG tag (VHH)
VHH: EVQLVESGGGLVQPGGSLRLSCAASGFTLDRYAIGWFRQAPGKEREGISCISSGSGSRVYADSVKGRFTVSRDNVENTVSLEMNSLKPEDTAVYYCAAEADYYCSGYPIYRKFGSWGQGTQVTVSS
notes: as the VHH of m6; Form prepared for SPR; source: E. coli BL21(DE3), purified (DDDDK-tagged Protein Purification Gel, SEC)
binding result [2]: binds

B3: VHH5 with a FLAG tag (VHH)
VHH: ELQLVESGGGLVQPGGSLRLSCAVSGVAFEDYAIGWFRQAPGKEREGVSCISSGSGSRIYTDSVKGRFTVSRDNPKNTVDLQMDSLKPEDTAVYYCAAERDYYCSGYPTYRAFSSWGEGTQVTVSS
notes: as the VHH of m7; Form prepared for SPR; source: E. coli BL21(DE3), purified (DDDDK-tagged Protein Purification Gel, SEC)
binding result [2]: binds

B4: Glut1 overexpressed on Expi293 cells (natural protein, human, UniProt P11166 1-492, looked up)
chain: MEPSSKKLTGRLMLAVGGAVLGSLQFGYNTGVINAPQKVIEEFYNQTWVHRYGESILPTTLTTLWSLSVAIFSVGGMIGSFSVGLFVNRFGRRNSMLMMNLLAFVSAVLMGFSKLGKSFEMLILGRFIIGVYCGLTTGFVPMYVGEVSPTALRGALGTLHQLGIVVGILIAQVFGLDSIMGNKDLWPLLLSIIFIPALLQCIVLPFCPESPRFLLINRNEENRAKSVLKKLRGTADVTHDLQEMKEESRQMMREKKVTILELFRSPAYRQPILIAVVLQLSQQLSGINAVFYYSTSIFEKAGVQQPVYATIGSGIVNTAFTVVSLFVVERAGRRTLHLIGLAGMAGCAILMTIALALLEQLPWMSYLSIVAIFGFVAFFEVGPGPIPWFIVAELFSQGPRPAAIAVAGFSNWTSNFIVGMCFQYVEQLCGPYVFIIFTVLLVLFFIFTYFKVPETKGRTFDEIASGFRQGGASQSDKTPEELFHPLGADSQV
notes: glucose transporter 1 (Glut1), human, on the surface of transfected Expi293 cells; also called Glut1 on the cell membrane; overexpressed Glut1; source: Expi293, transfected (pcDNA 3.4), on cells
binding result [3]: binds
binding result [4]: binds

B5: endogenous Glut1 on HCT116 cells (natural protein, human (endogenous in HCT116), UniProt P11166 1-492, looked up)
chain: B4 chain
notes: glucose transporter 1 (Glut1), endogenous on the surface of HCT116 colon cancer cells; source: endogenous, on HCT116 cells
binding result [5]: binds
binding result [6]: binds
